One test has as its target human IgG4 (Natalizumab). The test can be described thus: SPR, Biacore 3000, 25 C, Langmuir 1:1 model.
A further test deals with human IgG2 (Panitumomab). As to the kind of experiment: SPR, Biacore 3000, 25 C, Langmuir 1:1 model.

Consider “Wt C-domain (wild-type Protein A domain C) (from UniProt P38507 270-327)”, for which the Kd in the test with human IgG4 (Natalizumab) was 8 nM; with human IgG2 (Panitumomab), 129 nM.

The values above are taken from patent publication US20250051400A1.
